This note sets out measurements from patent publication US9789213B2, “EGFL7 targeting and/or binding polypeptides and methods for inhibiting angiogenesis” (LONDON HEALTH SCIENCES CENTRE RESEARCH INC., priority 2012, dated 2017).

Where no end group is shown, it is not given here. The star is where a group is joined. FITC = O=C1OC2(c3ccc(O)cc3Oc3cc(O)ccc32)c2ccc(NC(=S)*)cc21

The first assay has as its system HUVECs. Briefly: Cell uptake of FITC-labelled peptide by HUVECs with or without EGFL7 siRNA knockdown, flow cytometry. In kind it is cell-based, human. Conditions: HUVECs treated with negative siRNA or EGFL7 siRNA; 1 mM, 1 hour at 4° C. The procedure:
EGFL7 knockdown in human umbilical vein endothelial cells (HUVECs) was achieved using a siRNA targeting the exon 5 of the protein and INTERFERin transfection reagent (HUVECs-si). Wildtype HUVECs and HUVECs-si cells were seeded onto separate wells in a 6-well tissue culture plate to approximately 80% confluency. The cells were incubated overnight in DMEM containing 10% fetal bovine serum and Pen/Strep at 37° C. with 5% CO2. The media in each well were removed and replaced with pre-chilled PBS. FITC-E7-p72 (FITC-HMYFLLGH; SEQ ID NO: 20) was added onto cells to a final concentration of 1 mM and incubated for 1 hour at 4° C. Cells were detached from the well with EDTA, washed three times with PBS, and fixed with 4% formaldehyde. The uptake of FITC-labeled peptides was analyzed by flow cytometry.
For the substance {FITC}-HMYFLLGH [FITC-E7-p72], the “uptake of fluorescein-labelled peptide” value is recorded as “dependent on EGFL7 expression”.

For another assay, the target named is T1, recombinant GST-EGFL7 protein (Homo sapiens, UniProt Q9UHF1).
T1 construct: Magnetic nanobeads are then coated with full-length recombinant EGFL7; made in house; host or cells: Spodoptera frugiperda Sf21 (baculovirus)
T1 sequence (Q9UHF1 24-273): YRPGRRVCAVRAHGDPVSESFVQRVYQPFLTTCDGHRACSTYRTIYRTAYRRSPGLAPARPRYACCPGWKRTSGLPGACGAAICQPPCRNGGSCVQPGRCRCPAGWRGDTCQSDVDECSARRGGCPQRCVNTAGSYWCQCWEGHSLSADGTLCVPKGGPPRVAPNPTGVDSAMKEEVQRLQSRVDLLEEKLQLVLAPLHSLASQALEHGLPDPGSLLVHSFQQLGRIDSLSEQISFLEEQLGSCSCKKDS
Put plainly: OBOC peptide library screen ('beads on a bead') with secondary cell-based screen. The conditions noted are these: hit beads from magnetic-bead screen and secondary cell-based screen. In kind it is binding. The source says: The present invention also encompasses methods of screening polypeptides to identify those that interact with EGFL7 and modulate and EGFL7 activity and/or function. In a specific aspect, a combinatorial peptide library is screened using a “beads on a bead” approach, as set out in FIG. 1 and described in Cho et al., which is incorporated herein by reference in its entirety. […] Magnetic nanobeads are then coated with full-length recombinant EGFL7, are mixed with the peptide library, and the most highly interacting library bead “hits” are sorted using large format flow cytometry. An on-bead cell binding assay can then be used to validate the peptide hits using human endothelial cells. Validated hit peptides are then sequenced using an in-house MALDI-TOF/MS technique, and their binding affinity to EGFL7 is quantified using surface plasmon resonance (SPR) (Amadei et al. 2009, J. Mass Spectrometry, 45:241-51; U.S. Pat. Nos. 5,510,240; and 7,262,269, each of which is incorporated by reference herein in its entirety).
All fractions containing EGFL7 recombinant protein were pooled together. 30 μg of anti-GST antibody was mixed into the protein solution, and incubated with 370 mg of MagnaBind Protein A/G magnetic beads (Thermo Scientific) for 15 minutes at 4° C. After several washing with wash buffer, the proteins were released from the magnetic beads by boiling in SDS loading buffer, and analyzed by western blot using anti-EGFL7 polyclonal antibody (R&D Systems).
The OBOC peptide library beads were washed extensively using 70% ethanol, distilled water and binding buffer (50 mM Na2HPO4, 150 mM NaCl, 2 mM CaCl2, 0.5M L-Arginine, pH 7.4) before screening. The magnetic beads were mixed with the library beads in a glass vial, and incubated at 37° C. for 1 hour, A strong magnet was placed at the side of the vial, and the library was screened as described in Cho et al. Positive hits were pooled and washed extensively with ethanol and water. A secondary cell-based screen was performed using EGFL7-positive HT1080 fibrosarcoma cells expressing tdTomato, and EGFL7-negative MDA435 breast cancer cells expressing GFP as described in Cho et al. Hit beads were collected and peptides were sequenced on-bead using MALDI TOF MS/MS as described in Cho et al.
Recombinant EGFL7 protein was purified (FIGS. 2A and 2B) and conjugated onto magnetic beads. Western blot analysis was performed to show successful conjugation of purified EGFL7 onto magnetic beads using a polyclonal anti-EGFL7 antibody (FIG. 2C). EGFL7-conjugated magnetic beads were then mixed with a OBOC combinatorial peptide library, and positive hits were isolated using a strong neodynium magnet. […] Beads were examined under an inverted fluorescence microscope, and hit beads that strongly associated with red cells, but had little or no interaction with green cells were isolated manually.
In the case of RYVDHEDW (EGFL7 interacting peptide), the “affinity for EGFL7 in OBOC peptide library screening” value was “high affinity”.
On the same count and under the same terms, the entry for SQSSMYPS (EGFL7 interacting peptide) is “high affinity”; for EWELHAEE (EGFL7 interacting peptide) it is “high affinity”; for WYKLHPTM (EGFL7 interacting peptide) it is “high affinity”.
For the substance RYQLHHPR (EGFL7 interacting peptide), the “affinity for EGFL7 in OBOC peptide library screening” value is “high affinity”.
The same measure, in the same setting: the same measure for DPYDHEFR (EGFL7 interacting peptide): “high affinity”; for AYYEEAYE (EGFL7 interacting peptide): “high affinity”.
